Experimental data published in patent publication US20090291890A1 (published 2009).

The binders below were run against Factor X (FX) (Homo sapiens (Human)) (UniProt P00742).
Sequence of Factor X (FX) (Homo sapiens (Human)) (P00742 41-488 limits assumed): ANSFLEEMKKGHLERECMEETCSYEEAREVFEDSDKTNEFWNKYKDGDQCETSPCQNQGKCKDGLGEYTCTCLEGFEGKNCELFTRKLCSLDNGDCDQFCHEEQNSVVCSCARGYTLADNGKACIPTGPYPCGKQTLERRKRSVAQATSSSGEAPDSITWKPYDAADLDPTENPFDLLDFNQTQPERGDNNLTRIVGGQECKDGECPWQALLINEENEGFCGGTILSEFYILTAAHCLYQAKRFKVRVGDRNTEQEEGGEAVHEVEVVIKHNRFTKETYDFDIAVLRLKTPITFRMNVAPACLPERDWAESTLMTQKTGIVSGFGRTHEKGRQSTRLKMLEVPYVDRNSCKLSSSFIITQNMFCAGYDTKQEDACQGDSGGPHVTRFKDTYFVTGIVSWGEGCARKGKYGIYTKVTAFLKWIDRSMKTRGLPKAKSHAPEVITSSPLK

Binder	kcat/KM, TF-Dependent Indirect Assay [M⁻¹ s⁻¹]
FVIIa variant Q286Y (enzyme) ANAFLEELRPGSLERECKEEQCSFEEAREIFKDAERTKLFWISYSDGDQCASSPCQNGGSCKDQLQSYICFCLPAFEGRNCETHKDDQLICVNENGGCEQYCSDHTGTKRSCRCHEGYSLLADGVSCTPTVEYPCGKIPILEKRNASKPQGRIVGGKVCPKGECPWQVLLLVNGAQLCGGTLINTIWVVSAAHCFDKIKNWRNLIAVLGEHDLSEHDGDEQSRRVAQVIIPSTYVPGTTNHDIALLRLHQPVVLTDHVVPLCLPERTFSERTLAFVRFSLVSGWGYLLDRGATALELMVLNVPRLMTQDCLQQSRKVGDSPNITEYMFCAGYSDGSKDSCKGDSGGPHATHYRGTWYLTGIVSWGQGCATVGHFGVYTRVSQYIEWLQKLMRSEPRPGVLLRAPFP	1.61e+07
FVIIa variant Q366I (enzyme) ANAFLEELRPGSLERECKEEQCSFEEAREIFKDAERTKLFWISYSDGDQCASSPCQNGGSCKDQLQSYICFCLPAFEGRNCETHKDDQLICVNENGGCEQYCSDHTGTKRSCRCHEGYSLLADGVSCTPTVEYPCGKIPILEKRNASKPQGRIVGGKVCPKGECPWQVLLLVNGAQLCGGTLINTIWVVSAAHCFDKIKNWRNLIAVLGEHDLSEHDGDEQSRRVAQVIIPSTYVPGTTNHDIALLRLHQPVVLTDHVVPLCLPERTFSERTLAFVRFSLVSGWGQLLDRGATALELMVLNVPRLMTQDCLQQSRKVGDSPNITEYMFCAGYSDGSKDSCKGDSGGPHATHYRGTWYLTGIVSWGIGCATVGHFGVYTRVSQYIEWLQKLMRSEPRPGVLLRAPFP	9.37e+07
FVIIa variant Q366L (enzyme) ANAFLEELRPGSLERECKEEQCSFEEAREIFKDAERTKLFWISYSDGDQCASSPCQNGGSCKDQLQSYICFCLPAFEGRNCETHKDDQLICVNENGGCEQYCSDHTGTKRSCRCHEGYSLLADGVSCTPTVEYPCGKIPILEKRNASKPQGRIVGGKVCPKGECPWQVLLLVNGAQLCGGTLINTIWVVSAAHCFDKIKNWRNLIAVLGEHDLSEHDGDEQSRRVAQVIIPSTYVPGTTNHDIALLRLHQPVVLTDHVVPLCLPERTFSERTLAFVRFSLVSGWGQLLDRGATALELMVLNVPRLMTQDCLQQSRKVGDSPNITEYMFCAGYSDGSKDSCKGDSGGPHATHYRGTWYLTGIVSWGLGCATVGHFGVYTRVSQYIEWLQKLMRSEPRPGVLLRAPFP	6.87e+07
FVIIa variant Q366M (enzyme) ANAFLEELRPGSLERECKEEQCSFEEAREIFKDAERTKLFWISYSDGDQCASSPCQNGGSCKDQLQSYICFCLPAFEGRNCETHKDDQLICVNENGGCEQYCSDHTGTKRSCRCHEGYSLLADGVSCTPTVEYPCGKIPILEKRNASKPQGRIVGGKVCPKGECPWQVLLLVNGAQLCGGTLINTIWVVSAAHCFDKIKNWRNLIAVLGEHDLSEHDGDEQSRRVAQVIIPSTYVPGTTNHDIALLRLHQPVVLTDHVVPLCLPERTFSERTLAFVRFSLVSGWGQLLDRGATALELMVLNVPRLMTQDCLQQSRKVGDSPNITEYMFCAGYSDGSKDSCKGDSGGPHATHYRGTWYLTGIVSWGMGCATVGHFGVYTRVSQYIEWLQKLMRSEPRPGVLLRAPFP	6.61e+07
FVIIa variant S222V (enzyme) ANAFLEELRPGSLERECKEEQCSFEEAREIFKDAERTKLFWISYSDGDQCASSPCQNGGSCKDQLQSYICFCLPAFEGRNCETHKDDQLICVNENGGCEQYCSDHTGTKRSCRCHEGYSLLADGVSCTPTVEYPCGKIPILEKRNASKPQGRIVGGKVCPKGECPWQVLLLVNGAQLCGGTLINTIWVVSAAHCFDKIKNWRNLIAVLGEHDLSEHDGDEQVRRVAQVIIPSTYVPGTTNHDIALLRLHQPVVLTDHVVPLCLPERTFSERTLAFVRFSLVSGWGQLLDRGATALELMVLNVPRLMTQDCLQQSRKVGDSPNITEYMFCAGYSDGSKDSCKGDSGGPHATHYRGTWYLTGIVSWGQGCATVGHFGVYTRVSQYIEWLQKLMRSEPRPGVLLRAPFP	6.04e+07
